Data taken from patent publication US20250186602A1, “HUMANIZED ANTIBODY THAT BONDS TO EVA1 PROTEIN OR FUNCTIONAL FRAGMENT THEREOF, ANTIBODY-DRUG CONJUGATE AND CHIMERIC ANTIGEN RECEPTOR” (CURED INC., priority 2022, published 2025).
Substitutions are numbered along the chain they refer to.

B1: humanized B2E5-48 antibody H2-L2 (antibody, human IgG1, V domains shown)
VH: QVQLVQSGAEVKKPGASVKVSCKASGYTFTNYWMHWVRQAPGQGLEWMGEINPTNGGTDYNEKFQGRVTMTVDKSTSTAYMELSSLRSEDTAVYYCTIYTTALDYWGQGTLVTVSS
VL: EIVLTQSPATLSLSPGERATLSCRASSSVGYMYWYQQKPGQAPRPLIYVTSNRATGIPARFSGSGSGTDYTLTISSLEPEDFAVYYCQQWSSNPPTFGQGTKLEIK
notes: Human IgG1 heavy chain and human kappa light chain vectors; made in HEK293T cells; also called B2E5-H2-L2
B2: H3-L2: humanized B2E5-48 IgG1, VH H3 (SEQ ID NO: 16), VL L2 (SEQ ID NO: 7) (antibody, V domains shown)
VH: QVQLVQSGSELKKPGASVKVSCKASGYTFTNYWMHWVRQAPGQGLEWIGEINPTNGGTDYNEGFTGRFVLSVDKSSSTAYLQISSLKAEDTAVYYCTIYTTALDYWGQGTLVTVSS
VL: B1 VL
modifications: Variable Region of Heavy Chain 3 (Humanized B2E5-48); Variable Region of Light Chain 2 (Humanized B2E5-48)
B3: H2-L3: humanized B2E5-48 IgG1, VH H2 (SEQ ID NO: 13), VL L3 (SEQ ID NO: 10) (antibody, V domains shown)
VH: B1 VH
VL: QIQLTQSPSFLSASVGDRVTITCRASSSVGYMYWYQQKPGKAPKPLIYVTSNLASGVPSRFSGSGSGTEYTLTISSLQPEDFATYYCQQWSSNPPTFGQGTKLEIK
modifications: Variable Region of Heavy Chain 2 (Humanized B2E5-48); Variable Region of Light Chain 3 (Humanized B2E5-48)
B4: humanized B2E5-48 antibody H3-L2 (antibody, human IgG1, V domains shown)
VH: B2 VH
VL: B1 VL
notes: Human IgG1 heavy chain and human kappa light chain vectors; made in HEK293T cells
B5: humanized B2E5-48 antibody H2-L3 (antibody, human IgG1, V domains shown)
VH: B1 VH
VL: B3 VL
notes: as for B4
B6: humanized B2E5-48 antibody H2-L4 (antibody, human IgG1, V domains shown)
VH: B1 VH
VL: B3 VL with Q1D
notes: as for B4
B7: H1-L4: humanized B2E5-48 IgG1, VH H1 (SEQ ID NO: 15), VL L4 (SEQ ID NO: 8) (antibody, V domains shown)
VH: B1 VH with M48I, M70L, T76S
VL: B3 VL with Q1D
modifications: Variable Region of Heavy Chain 1 (Humanized B2E5-48); Variable Region of Light Chain 4 (Humanized B2E5-48)
B8: H2-L4: humanized B2E5-48 IgG1, VH H2 (SEQ ID NO: 13), VL L4 (SEQ ID NO: 8) (antibody, V domains shown)
VH: B1 VH
VL: B3 VL with Q1D
modifications: Variable Region of Heavy Chain 2 (Humanized B2E5-48); Variable Region of Light Chain 4 (Humanized B2E5-48)
B9: humanized B2E5-48 antibody H4-L2 (antibody, human IgG1, V domains shown)
VH: B2 VH with I48M, L70F, S76V
VL: B1 VL
notes: as for B4
B10: humanized B2E5-48 antibody H3-L4 (antibody, human IgG1, V domains shown)
VH: B2 VH
VL: B3 VL with Q1D
notes: as for B4
B11: H3-L3: humanized B2E5-48 IgG1, VH H3 (SEQ ID NO: 16), VL L3 (SEQ ID NO: 10) (antibody, V domains shown)
VH: B2 VH
VL: B3 VL
modifications: Variable Region of Heavy Chain 3 (Humanized B2E5-48); Variable Region of Light Chain 3 (Humanized B2E5-48)
B12: H3-L4: humanized B2E5-48 IgG1, VH H3 (SEQ ID NO: 16), VL L4 (SEQ ID NO: 8) (antibody, V domains shown)
VH: B2 VH
VL: B3 VL with Q1D
modifications: Variable Region of Heavy Chain 3 (Humanized B2E5-48); Variable Region of Light Chain 4 (Humanized B2E5-48)
B13: humanized B2E5-48 antibody H4-L3 (antibody, human IgG1, V domains shown)
VH: B2 VH with I48M, L70F, S76V
VL: B3 VL
notes: as for B4
B14: humanized B2E5-48 antibody H1-L4 (antibody, human IgG1, V domains shown)
VH: B1 VH with M48I, M70L, T76S
VL: B3 VL with Q1D
notes: as for B4
B15: humanized B2E5-48 antibody H4-L4 (antibody, human IgG1, V domains shown)
VH: B2 VH with I48M, L70F, S76V
VL: B3 VL with Q1D
notes: as for B4
B16: humanized B2E5-48 antibody H3-L3 (antibody, human IgG1, V domains shown)
VH: B2 VH
VL: B3 VL
notes: as for B4

Experiments:
hEva1-mouse Fc [1] = biological target: T1, hEva1-mouse Fc (human, UniProt O60487 27-154, limits assumed); assay: SPR (BiaCore T200), single-cycle kinetics; antibody captured by anti-human IgG on CM5 chip, hEva1-mouse Fc as analyte
T1 construct: SPR analyte; the '1' is probably the first concentration (1 nM); also called hEva1-mouse Fc1 (so in the source); not shown: mouse Fc
T1 sequence: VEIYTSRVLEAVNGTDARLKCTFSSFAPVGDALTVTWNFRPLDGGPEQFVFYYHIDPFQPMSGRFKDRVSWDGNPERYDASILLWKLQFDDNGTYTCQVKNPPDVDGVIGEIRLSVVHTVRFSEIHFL
Protocol: (§1) The dissociation constants and association constants of the humanized antibodies and the like were analyzed by using surface plasmon resonance (SPR, product name: BiaCore T200 (manufactured by GE healthcare)).
Specifically, first, human IgG capture antibodies were immobilized on a CM5 chip by an amine coupling method. […] Then, the kinetics analysis on the anti-Eval antibody and hEva1 was conducted by a single-cycle method using the following measurement conditions.

hEva1-mouse Fc [2] = assay: Surface plasmon resonance kinetics analysis (BiaCore T200, single-cycle); format: binding, human; conditions: SPR, antibody captured 5 nM, analyte hEva1-mouse Fc 1-250 nM, HBS-EP+ pH 7.4
Protocol: as §1
Specifically, first, human IgG capture antibodies were immobilized on a CM5 chip by an amine coupling method. This immobilization was conducted in both reference cells and active cells. Then, the kinetics analysis on the anti-Eval antibody and hEva1 was conducted by a single-cycle method using the following measurement conditions.
• Sample compartment temperature: 10° C. • Running buffer: HBS-EP+buffer, pH 7.4 • Capturing molecule: Human IgG antibody, reference & active cells • Ligand: Various antibodies 5 nM, active cells only • Analyte: hEva1-mouse Fc1, 5, 25, 125, 250 nM, reference & active cells • Regeneration buffer: 3M MgCl2, reference & active cells • 3 cycles of Blanks (Analyte zero concentration)

Molecule | Kd (hEva1-mouse Fc [1]) [nM] | koff (hEva1-mouse Fc [1]) [s⁻¹] | kon (hEva1-mouse Fc [1]) [M⁻¹ s⁻¹] | ka (hEva1-mouse Fc [2]) [M⁻¹ s⁻¹] | kd (hEva1-mouse Fc [2]) [s⁻¹]
B1 | 467 | 0.0092 | 19700 |  | 
B2 |  |  |  | 16770 | 0.0132
B3 |  |  |  | 20710 | 0.008858
B4 | 787 | 0.0132 | 16800 |  | 
B5 | 428 | 0.00886 | 20700 |  | 
B6 | 529 | 0.0091 | 17200 |  | 
B7 |  |  |  | 17470 | 0.009313
B8 |  |  |  | 17200 | 0.009101
B9 | 768 | 0.0146 | 19000 |  | 
B10 | 873 | 0.0138 | 15800 |  | 
B11 |  |  |  | 15010 | 0.01253
B12 |  |  |  | 15800 | 0.0138
B13 | 877 | 0.0136 | 15500 |  | 
B14 | 533 | 0.00931 | 17500 |  | 
B15 | 994 | 0.0152 | 15300 |  | 
B16 | 835 | 0.0125 | 15000 |  | 
